What was measured:
[1] = biological target: p150^Glued CAP-gly domain, wildtype (residues 19-107) (UniProt Q14203-1 19-107); assay: SEC
[2] = biological target: p150^Glued CAP-gly domain (residues 19-107) G59A (UniProt Q14203-1 19-107, G59A); assay: SEC
p150^Glued CAP-gly domain (residues 19-107) G59A, sequence (Q14203 19-107 G59A): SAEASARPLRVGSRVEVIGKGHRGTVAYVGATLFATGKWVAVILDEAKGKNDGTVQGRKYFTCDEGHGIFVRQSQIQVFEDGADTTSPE

p150^Glued CAP-gly domain, wildtype (residues 19-107), sequence (Q14203 19-107): as the sequence (Q14203 19-107 G59A) above, with A41G counted along it

B1: EB1 fragment (residues 194 to 268) (domain or fragment, UniProt Q15691 194-268, looked up)
chain: AELMQQVNVLKLTVEDLEKERDFYFGKLRNIELICQENEGENDPVLQRIVDILYATDEGFVIPDEGGPQEEQEEY
B1: binds [1]; binds [2].

From PMC2938955 (Biochemistry, 2010)
